# Laboratory results: the supplement of paper PMC9112550, “Optimization of the antimicrobial peptide Bac7 by deep mutational scanning” (BMC Biology, 2022)
# Test system: Escherichia coli TOP10
# Experiment: shrunken log2 fold change of peptide-encoding DNA abundance (4.5 h post-induction vs induction); higher = less antimicrobial activity (less host growth inhibition)
# Details: time post-induction: 4.5 h; library: site-saturation at positions 5, 18, 19, 20
# 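Note: peptides expressed intracellularly from a pBAD plasmid library in pooled LB shake-flask culture, induced with 0.3% L-arabinose, DNA abundance read by NGS, three biological replicates, DESeq2 with apeglm shrinkage.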
row,Sequence,shrunken log2 fold change
1,RRIRNRPPRLPRPRPRPQAEPRP,-0.155
2,RRIRFRPPRLPRPRPRPHPKPRP,0.827
3,RRIRWRPPRLPRPRPRPCPTPRP,0.0714
4,RRIRFRPPRLPRPRPRPAYPPRP,-0.412
5,RRIRERPPRLPRPRPRPQAAPRP,-0.194
6,RRIRERPPRLPRPRPRPNKVPRP,-0.372
7,RRIRTRPPRLPRPRPRPLMSPRP,0.0356
8,RRIRVRPPRLPRPRPRPQNEPRP,-0.303
9,RRIRWRPPRLPRPRPRPFMVPRP,-0.371
10,RRIRRRPPRLPRPRPRPNTWPRP,0.0852
11,RRIRMRPPRLPRPRPRPMTHPRP,0.173
12,RRIRTRPPRLPRPRPRPMSMPRP,-0.171
13,RRIRTRPPRLPRPRPRPVIVPRP,-0.314
14,RRIRFRPPRLPRPRPRPWHVPRP,-0.0433
15,RRIRNRPPRLPRPRPRPRKNPRP,0.161
16,RRIRTRPPRLPRPRPRPSTAPRP,0.181
17,RRIRYRPPRLPRPRPRPYQHPRP,-1.87
18,RRIRYRPPRLPRPRPRPGDDPRP,-0.286
19,RRIRCRPPRLPRPRPRPYNGPRP,-0.216
20,RRIRCRPPRLPRPRPRPDFYPRP,-0.629
21,RRIRDRPPRLPRPRPRPQFLPRP,-0.225
22,RRIRKRPPRLPRPRPRPSQVPRP,0.31
23,RRIRSRPPRLPRPRPRPLSPPRP,0.0487
24,RRIRHRPPRLPRPRPRPYRFPRP,-0.269
25,RRIRDRPPRLPRPRPRPHYRPRP,-0.562

row,Sequence,shrunken log2 fold change
1,RRIRHRPPRLPRPRPRPRDGPRP,0.84
2,RRIRFRPPRLPRPRPRPFHLPRP,-0.391
3,RRIRIRPPRLPRPRPRPLTWPRP,-0.585
4,RRIRKRPPRLPRPRPRPHQLPRP,0.0824
5,RRIRARPPRLPRPRPRPKYYPRP,-0.179
6,RRIRSRPPRLPRPRPRPCMQPRP,-0.31
7,RRIRSRPPRLPRPRPRPWCSPRP,-0.296
8,RRIRIRPPRLPRPRPRPEAGPRP,-0.17
9,RRIRNRPPRLPRPRPRPSDCPRP,-0.483
10,RRIRWRPPRLPRPRPRPTYQPRP,-0.325
11,RRIRIRPPRLPRPRPRPQIFPRP,0.0997
12,RRIRCRPPRLPRPRPRPHMTPRP,-0.331
13,RRIRYRPPRLPRPRPRPQQSPRP,-0.454
14,RRIRARPPRLPRPRPRPKIVPRP,-0.0715
15,RRIRKRPPRLPRPRPRPFESPRP,0.0457
16,RRIRIRPPRLPRPRPRPLNGPRP,-0.0474
17,RRIRCRPPRLPRPRPRPVQDPRP,0.0523
18,RRIRDRPPRLPRPRPRPDVFPRP,0.07
19,RRIRQRPPRLPRPRPRPRRLPRP,0.752
20,RRIRGRPPRLPRPRPRPMLMPRP,1.09
21,RRIRYRPPRLPRPRPRPKQWPRP,0.0575
22,RRIRERPPRLPRPRPRPGKHPRP,-0.324
23,RRIRLRPPRLPRPRPRPGPAPRP,0.972
24,RRIRCRPPRLPRPRPRPNTTPRP,-0.291
25,RRIRFRPPRLPRPRPRPPGKPRP,0.2

row,Sequence,shrunken log2 fold change
1,RRIRERPPRLPRPRPRPKSDPRP,-0.0784
2,RRIRVRPPRLPRPRPRPQENPRP,-0.119
3,RRIRWRPPRLPRPRPRPNSLPRP,-0.123
4,RRIRGRPPRLPRPRPRPNPQPRP,0.0794
5,RRIRMRPPRLPRPRPRPNWRPRP,0.0183
6,RRIRGRPPRLPRPRPRPLYEPRP,0.913
7,RRIRQRPPRLPRPRPRPFRGPRP,0.113
8,RRIRDRPPRLPRPRPRPAAQPRP,1.65
9,RRIRPRPPRLPRPRPRPVGPPRP,0.427
10,RRIRIRPPRLPRPRPRPQTGPRP,-0.139
11,RRIRERPPRLPRPRPRPGLKPRP,0.131
12,RRIRKRPPRLPRPRPRPTITPRP,-0.1
13,RRIRTRPPRLPRPRPRPCVPPRP,-0.109
14,RRIRYRPPRLPRPRPRPTRTPRP,-0.0719
15,RRIRERPPRLPRPRPRPPGDPRP,0.619
16,RRIRNRPPRLPRPRPRPEMEPRP,-0.0148
17,RRIRYRPPRLPRPRPRPYAAPRP,-0.546
18,RRIRARPPRLPRPRPRPRCDPRP,0.324
19,RRIRIRPPRLPRPRPRPICFPRP,-0.152
20,RRIRGRPPRLPRPRPRPYVKPRP,-0.417
21,RRIRRRPPRLPRPRPRPAQNPRP,0.398
22,RRIRSRPPRLPRPRPRPLHPPRP,0.578
23,RRIRYRPPRLPRPRPRPCAQPRP,-0.00639
24,RRIRQRPPRLPRPRPRPNQLPRP,-0.499
25,RRIRGRPPRLPRPRPRPCSDPRP,0.0118
